The RNAGym collection of RNA variant scans (doi:10.7554/elife.80360)

B1: HDV Ribozyme (parent)
chain: GGCCGGCAUGGUCCCAGCCUCCUCGCUGGCGCCGGCUGGGCAACAUUCCGAGGGGACCGUCCCCUCGGUAAUGGCGAAUGGGACCCA

Variants of: B1
Experiment: self-cleavage, relative activity (ratio to wild type); higher = more cleavage; co-transcriptional

In order of falling self-cleavage:
1. A16G C61U  1.26
2. C41U C58U  1.17
3. C63U U65C  1.14
4. G50A G55U  1.11
5. U9G G67C  1.08
6. G55C U60C  1.07
7. U9A U69G  1.06
8. C57A  1.05
9. U60C C63A  1.04
10. C26A G40A  1.01
11. C44A C86U  1.01
12. G54C C57U  0.997
13. U60C C85U  0.989
14. G52C C62U  0.987
15. G55C A56C  0.969
16. U23G G68U  0.969
17. G50A C86A  0.931
18. A56G A87G  0.929
19. U9G U12C  0.923
20. G10C C62A  0.919
21. G5U C33A  0.898
22. C14U C57U  0.878
23. C3G A87U  0.875
24. C62A A87G  0.867
25. C64G G76A  0.862
26. C3A C26U  0.853
27. G50A G54U  0.852
28. C22U C57A  0.846
29. G10U G40U  0.842
30. U9G G68A  0.831
31. C61G A78G  0.831
32. G67U C85A  0.831
33. C48G G59C  0.831
34. G50C G55U  0.776
35. G59U A70C  0.77
36. G40A C61U  0.765
37. C7U A56U  0.739
38. A45G U69C  0.72
39. U46C C86U  0.697
40. C44G U65G  0.688
41. A56G A83U  0.684
42. G50U C84U  0.665
43. A42G C58A  0.655
44. U27G G81U  0.643
45. C22U G68A  0.631
46. G40C C41U  0.629
47. C13U G54C  0.623
48. A56U A77U  0.623
49. C3A C58A  0.609
50. U27C A70C  0.604
51. U47C C84G  0.604
52. U23C A77G  0.587
53. A8U G39U  0.571
54. G17U G67A  0.564
55. G82U C86U  0.554
56. C44A U60G  0.554
57. A77G U79A  0.554
58. G55U A83C  0.554
59. C41G G52U  0.554
60. G40A U46G  0.554
61. G31C G50C  0.511
62. G55C A77C  0.495
63. G17C A71G  0.475
64. U69G G81A  0.469
65. A42G G50A  0.446
66. C30U U60G  0.443
67. U9G C22U  0.44
68. C3A A83G  0.434
69. G53U G80A  0.419
70. C4A C26U  0.415
71. U9C G31U  0.399
72. G31A C48U  0.393
73. C21U C64G  0.364
74. U12A U46A  0.361
75. G67A A83U  0.359
76. G31U C58A  0.35
77. G40U C63G  0.348
78. A83C A87U  0.346
79. C3A G54C  0.34
80. A70C C84G  0.323
81. C3A C64G  0.32
82. C18G G59U  0.312
83. C3G U27A  0.308
84. U12C G17U  0.308
85. A16C U27C  0.293
86. C57U G82A  0.269
87. G5C C33A  0.26
88. U20A C21G  0.256
89. G11U C63G  0.248
90. C49A G81A  0.242
91. C13A C84G  0.237
92. U23A C33A  0.237
93. C32A G53A  0.234
94. C4U G11U  0.219
95. U69G G80C  0.219
96. C57A G80A  0.218
97. C13U G17C  0.217
98. C7G C66G  0.214
99. C30A U37C  0.199
100. U12G G35A  0.19
101. C41U G80C  0.188
102. G39C G81A  0.185
103. C13A C30U  0.181
104. U12C G81C  0.18
105. C41U G80U  0.174
106. C15G G73A  0.162
107. U23G G39C  0.158
108. C4G G73A  0.156
109. G82A A83G  0.156
110. G29A U46A  0.156
111. G11C U47A  0.151
112. G25U C66U  0.151
113. C18A G82A  0.149
114. C21A C22U  0.138
115. C3A G11U  0.138
116. G29A U69C  0.131
117. G34C G68C  0.128
118. A8G G82C  0.128
119. C19A G52C  0.125
120. A8U C32G  0.125
121. C24G G74A  0.124
122. C30A U72A  0.123
123. G1A C86A  0.119
124. C7U G80U  0.117
125. U12A G29A  0.113
126. G28C G74A  0.108
127. G25C G74U  0.108
128. G17C G39U  0.108
129. C3U U12C  0.107
130. C21G A83G  0.0987
131. C19A C85A  0.0963
132. C21A A43U  0.0944
133. U23G G28A  0.0941
134. G17C C21U  0.0923
135. G25U A77U  0.0923
136. G11U A77U  0.0906
137. G25C U65G  0.0875
138. G25U C33U  0.0831
139. G5C C21A  0.0831
140. G34U G76C  0.0821
141. G1U U60C  0.0811
142. G31A G82U  0.0715
143. C3A C36A  0.071
144. A8U A42C  0.0692
145. G11U C13U  0.0674
146. G28U G31A  0.0554
147. G2C A8G  0.0554
148. C22A G34U  0.0536
149. C19A U23C  0.0519
150. U37G G81U  0.0489
151. G34U A42G  0.0449
152. G2A C30G  0.0432
153. C13G C30G  0.0426
154. C18G C84U  0.0386
155. A42G G81U  0.0346
156. G28U G40U  0.0277
157. C30G G55U  0.0225
158. C30G A83G  0
159. C14A C18A  0
160. G2C G52C  0
161. U20A C48U  0
162. G5A A77U  0
163. G29C G50C  0
164. G2U C7G  0
165. C21A G25C  0
166. U12A C33G  0
167. C4G G29A  0
